From article PMC11094003, “Chemical manipulation of an activation/inhibition switch in the nuclear receptor PXR” (Nature Communications, 2024)
Substitutions are numbered along the chain they refer to.

How the values were obtained:
[1] = biological target: T1, human pregnane X receptor ligand binding domain (residues 130-434) (human, UniProt O75469 130-434); experiment: crystal structure; PXR LBD tethered to the SRC-1 peptide on one chain, co-crystallised with an antagonist (SJPYT-310, SJPYT-278, SJPYT-312 or SJPYT-331; 2:1 ligand to protein); 50 mM Bis-Tris pH 6-7, 10-20% MPD, 20 °C; details: both partners purified
T1 construct: In the crystallised construct this domain and the SRC-1 peptide are one polypeptide: His6 - PXR 130-434 - SGGSGG linker - SRC-1 678-710; Written here as a molecule of its own for the pair PXR LBD / SRC-1; also called PXR LBD; WT PXR LBD; source: E. coli BL21(DE3), purified (HisTrap, HiTrap SP flow-through, Superdex 200 SEC)
T1 sequence (looked up): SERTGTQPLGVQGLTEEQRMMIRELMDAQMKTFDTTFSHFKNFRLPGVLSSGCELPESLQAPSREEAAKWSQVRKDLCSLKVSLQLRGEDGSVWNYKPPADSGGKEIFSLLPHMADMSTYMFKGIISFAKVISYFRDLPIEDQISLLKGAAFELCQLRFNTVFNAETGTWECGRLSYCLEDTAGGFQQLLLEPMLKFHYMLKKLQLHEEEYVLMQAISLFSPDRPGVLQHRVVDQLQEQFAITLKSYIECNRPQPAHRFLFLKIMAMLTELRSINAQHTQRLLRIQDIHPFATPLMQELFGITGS

[2] = biological target: T2, L428V mutant of human pregnane X receptor ligand binding domain (residues 130-434) (human, UniProt O75469 130-434, L428V); experiment: crystal structure; PXR L428V LBD tethered to the SRC-1 peptide on one chain, apo and with the antagonist SJPYT-331; 50 mM Bis-Tris pH 6-7, 10-20% MPD, 20 °C; details: both partners purified
T2 construct: As m1, one polypeptide with the SRC-1 peptide: His6 - PXR 130-434 (L428V) - SGGSGG linker - SRC-1 678-710; also called PXR^L428V LBD; source: E. coli BL21(DE3), purified (HisTrap, HiTrap SP flow-through, Superdex 200 SEC)
T2 sequence (looked up): T1 sequence (looked up) with L299V

B1: SRC-1 peptide (residues 678-710), 33 amino acids (peptide, UniProt Q15788 678-710, looked up)
chain: SSHSSLTERHKILHRLLQEGSPSDITTLSVEPD
notes: Not a free peptide: tethered to the C-terminus of PXR LBD (m1 or m3) through an SGGSGG linker on one chain; also called tethered SRC-1 peptide
B1: binds [1]; binds [2].
